# Results taken from the nanobody polyreactivity screen of Harvey et al. (2022).
# Assay: yeast display, Sf9 membrane polyspecificity reagent, FACS + sequencing; frameworks hold sequencing errors
# How it was run: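 Galactose-induced (36–48 hours) yeast carrying a synthetic nanobody display library were exposed to 10% biotinylated, detergent-solubilized Sf9 membrane reagent at 4 °C for 1 hour. FACS followed streptavidin microbead enrichment, using low and high (top ~1%) gates for expression (anti-HA) and reagent binding (streptavidin). Colony PCR, MiSeq 2 × 250 sequencing and CDR-length filtering followed. Labels for polyreactivity reflect the gate of origin.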
row,Sequence,polyreactivity (PSR sort gate)
1,QVQLVESGGGLVQAGGSLRLSCAASGYTFEFNVMGWYRQAPGKERELVASIRWGSTSYADSVKGRFTISRDNAKNTVYLQMNSLKPEDTAVYYCAAVTYDYWGQGTQVTVSS,low polyreactivity
2,QVQLVESGGGLVQAGGSLRLSCAASGYTFFFYAMGWYRQAPGKEREFVAAITWRGDSTYYADSVKGRFTISRDNAKNTVYLQMNSLKPEDTAVYYCAADPGFTWSRRMDYWGQGTQVTVSS,low polyreactivity
3,QVQLVESGGGLVQAGGSLRLSCAASGYTFFHNAMGWYRQAPGKERELVATISRGGGSTYYADSVKGRFTISRDNAKNTVYLQMNSLKPEDTAVYYCNKGVITYRRGYWGQGTQVTVSS,low polyreactivity
4,QVQLVESGGGLVQAGGSLRLSCAASGYTFFRYAMGWYRQAPGKERELVAAITGSGGRTYYADSVKGRFTISRDNAKNTVYLQMNSLKPEDTAVYYCNRYGSGHSFIYDYWGQGTQVTVSS,high polyreactivity
5,QVQLVESGGGLVQAGGSLRLSCAASGYTFGKYVMGWYRQAPGKERELVAAISISGSGTYYADSVKGRFTISRDNAKNTVYLQMNSLKPEDTAVYYCAARGYGFPELDYWGQGTQVTLSS,high polyreactivity
6,QVQLVESGGGLVQAGGSLRLSCAASGYTFGTYAMGWYRQAPGKERELVATISIGGITYYADSVKGRFTISRDNAKNTVYLQMNSLIPEDTAVYYCAKAVTDPTSRSDPTGDDYWGQGTQVTVSS,low polyreactivity
7,QVQLVESGGGLVQAGGSLRLSCAASGYTFGTYDMGWYRQAPGKERELVAAISIGGSTNYADSVKGRFTISRDNAKNTVYLQKNSLKPEDTAVYYCAAEVNVGTLLLSVIVEDGDYWGQGTQVTVSS,low polyreactivity
8,QVQLVESGGGLVQAGGSLRLSCAASGYTFGYNVMGWYRQAPGKERELVAVISSGGTTYYADSVKGRFTISRDNAKNTVYLQMNSLKPEDTAVYYCNKRSAYKFSTHYGYYYWGQGTQVNVSS,high polyreactivity
9,QVQLVESGGGLVQAGGSLRLSCAASGYTFGYYAMGWYRQAPGKERELVAAISLNGGSTYYADSVKGRFTISRDNAKNTVYLQMNSLKPEDSAVYYCNALYNYAEIYGRGYCGQGTQVTVSS,high polyreactivity
10,QVQLVESGGGLVQAGGSLRLSCAASGYTFIHNAMGWYRQAPGKERELVAAINRSGAITNYADSVKGRFTISRDNAKNTVYLQMNSLKPEDTAVYYCNADVDPLPPRYLHREVLKEYNYWGQGTQVTVSS,low polyreactivity
11,QVQLVESGGGLVQAGGSLRLSCAASGYTFKSYFTGWYRQAPAKERELVAAITSIGGSTYYADSVKGRFTISRDNAKNTVYFLMNSVKPEDTEVYYCAKRRRGYAFSSDYWGPGTQVTVSS,high polyreactivity
12,QVQLVESGGGLVQAGGSLRLSCAASGYTFKYYAMAWYRQAPGKERELVAAITRSGGGTYYADSVKGRFTISRDNAKNTVYLQMNSLKPEDTAVYYCKAVLSSHGTDAGSYSYDYWGQGTQVTVSS,high polyreactivity
13,QVQLVESGGGLVQAGGSLRLSCAASGYTFLDYAMAWYRQAPGKERELVAAINSGGSTYYADSVKGRFTISRDNAKNTVYLQMNSLKPEDTAVYYCAREDYVSYRLLYYLFDYWGQGTQVTVSS,low polyreactivity
14,QVQLVESGGGLVQAGGSLRLSCAASGYTFLRNAMGWYRQAPGKERELVAAISYSGGGTYYPDSVMGRFTISRDHAKNTVYLKMNSLKPEDTAVYYCNVAQRYYGNFFSSRYESWGQGTQVTVSS,low polyreactivity
15,QVQLVESGGGLVQAGGSLRLSCAASGYTFLYYAMGWYRQAPGKERELVAAISSDGTTNYADSVKGRFTISRDNAKNTVYLQMNSLKPQVTAVYYCAADVFNWGYYYWGQGTQVTVSS,low polyreactivity
16,QVQLVESGGGLVQAGGSLRLSCAASGYTFNDYAMGWYRQARGKERELVASISSGGSTYYADSVKGRFTISRDNAKNTVYLQMNSLKPEDTAVYYCAAEWHYIYAYDYWGQGTQVTVSS,low polyreactivity
17,QVQLVESGGGLVQAGGSLRLSCAASGYTFNRYAMGWYRQAPGKERELVAAISKRGGSTNYADSVKGRFTISRDNAKNTVYLQMNSLKPEDTAVYYCAKRWRSYSRGGDYWGQGTQVTVSS,high polyreactivity
